# Test results: the DeepSol protein solubility set
# Assay: soluble on expression in E. coli; label from the status in PepcDB or PDB records
row,Sequence,soluble on expression in E. coli
1,MSLNDSILEPKHRGNVREIAAIDLGSNSFHMIVARIVNGSIQVLSRLKQKVKLAEGLDENAVLNQEAITRGVNCLALFAERLQGFPMENVNVVGTYTLRRAVNNDEFLRQAAKVFPYPINIISGQTEAKTIYAGVCHTQPEKGRKLVIDIGGGSTEMIIGDDFTPLMAESRHMGCVSFATQFFTDGIISPENFQRARQSAVNKIEDLGLEYRKLGWQSVLGSSGTIKTVAQVIATNLDPNGTITAERLNALIEQTLQAKHFTELNINGLNQDRVDVFVPGLAILSAVFDVFHIQQMRYSDGALREGVIYSLEKNFQVADIRASTAEGHHHHHH,soluble
2,MGSDKIHHHHHHMDINTKNLKKNAFRVTKRRGITASRIRVPGGHLEAKFLSMIQNIAENYGDGSVHITSRQGFEIPGIKFEDMPKVNELLQPIIEGLNINQETALQGYSASGTRNITACVGNRVCPYGCYDTTSFAQRIEKAVFPHDLHFKIALTGCPNDCAKVRMHDFGIMGMTEPHYESDTCVSCGACVKVCKKKSVGALSAVNYKVVRRGEKCIGCGECVLKCPTGAWTRSEKTYYRLTLLGRTGKKNPRLGEDFIKWVDEDSIIKIILNTYDYVTKYIDPNAPGGKEHIGYIVDRTGFEEFKKWALKDVKLPSIAEVYTPIYWNGIKY,not soluble
3,MTWNESHGERIIRRFERDIFPWIGSKPISEIAAPELLATVRRIESRGAVETAHRALGNCGQVFRYAIATARATRDISADLRGALPPVKGEHLEHHHHHH,not soluble
4,AFLNKHFAKKNHNISVDELSHALELTDKAELTEENNILEGIIRFGGETAKEVMTSRLDVVDLDIRTPFKDVIQCIIDNAYSRIPIYSGTRDNIKGVLYIKDLLPHLNKGDNFRWQSLIRPAYFVPETKMIDDLLRDFQANKIHIAIVVDEFGGTSGIVTMEDIIEEIVGEIHDEYDD,soluble
5,MSLIKQEHMHPPPRAITPLPPATHQITLEEYKEREKKDYYRDATKDASVKKVVLSLLKDHPGMWQNGNRFQPEKWRALGVDVYQRTGQIVRVNDMRKMLVMGKSVLKKKIAICIRDKKLDRAATEKDLWYWEYYRHFLYYRETLGQFEANLRGEEWTGEDQIQDEDDIIYDGMLDGDLSNSSHNFAGHGADDDYQVEEVQYSEAGFRRPESVRGGDSYFGHGPPPQMVMGSSASNFSSATQSHSRNRKSSSIDHTEVDRSAQHIAEQAKRLFLQYPEKSNLIRETMFKTILAFDDPSADYQNVGEIFDDLAAQEAAKKRKRAENRAQREQQ,not soluble
6,NSLFNQEVQIPLTESYCGPCPKNWICYKNNCYQFFDESKNWYESQASCMSQNASLLKVYSKEDQDLLKLVKSYHWMGLVHIPTNGSWQWEDGSILSPNLLTIIEMQKGDCALYASSFKGYIENCSTPNTYICMQRTV,soluble
7,MIDTTVFQNKTAVYYTLGCKLNFSETSTIGKILREAGVRTARKGEKADICVVNTCSVTEMADKKCRQAIHRLVKQHPGAFVVVTGCYAQLKPGDVAKIKGVDVVLGAEQKGDLLQYLGDLHKHEEGEAFTTTTKDIRSFSPSCSRGDRTRFFLKVQDGCDYFCSYCTIPFARGRSRNGTVASMVEQARQAAAEGGKEIVLTGVNIGDFGKTTGETFFDLVKALDQVEGIERYRISSIEPNLLTDEIIEFVSRSRRFMPHFHIPLQSGCDEVLKLMRRRYDTALFASKVKKIKEVMPDAFIGVDVIVGTRGETEEYFEQAYQFISGLDVTQLHVFSYSERPGTQALKIDYVVSPEEKHQRSQRLLTLSDEKTRAFYTRHIGQTMQVLMEKSKAGTPMHGFTANYIRVEVENDESLDNQMINVRLGEFNEDMTALKGTILMNYEV,not soluble
8,MAHHHHHHMQDEHKFNAEDRRRAPPPNTPERALDYHERTNDDKLIAHASQVNHLSKPRHRNCLTEFIIVETPVVSFLVDSSDPSLCLLRRSGRQGTKNEEKGVH,soluble
9,SLTRNNELIAVGKGSSLKRLPVFGMEPRILYNPLQGQKCIVQTTSWSQCSKTCGTGISTRVTNDNPECRLVKETRICEVRPCGQPVYSSLKKGKKCSKTKKSPEPVRFTYAGCLSVKKYRPKYCGSCVDGRCCTPQLTRTVKMRFRCEDGETFSKNVMMIQSCKCNYNCPHANEAAFPFYRLFNDIHKFRDEG,not soluble
10,MVEIKLENIVKKFGNFTALNNINLKIKDGEFMALLGPSGSGKSTLLYTIAGIYKPTSGKIYFDEKDVTELPPKDRNVGLVFQNWALYPHMTVYKNIAFPLELRKAPREEIDKKVREVAKMLHIDKLLNRYPWQLSGGQQQRVAIARALVKEPEVLLLDEPLSNLDALLRLEVRAELKRLQKELGITTVYVTHDQAEALAMADRIAVIREGEILQVGTPDEVYYKPKYKFVGGFLGNPPMNFVEAKVEDGKLVITEKSKLPIPKQYVEIVKETGITEVIIGFRPHDAEIVKGEGEGIVGEVYSFEPLGREQIVTVSVNDSIVKVFAPEGEHFSFGEKVTIKVKEELLVLFDKKTEKALEFSKL,soluble
11,MNDFLNFTQQKREEPQQLVLIKYPGIVKNVDKALQTMGGLQLISQSHFNNHSLELSHTPDNPYTSRIMAERKPQDNVSSGTLHLVMKVRRKKIDPTKIKTSFLGLVNTVYTFDVMCDFQYLPLKKRVGCDTFEDLIPKLIPTDIASALSWWDASESVATPLFLPPYQFSRYLTPSTKILGRETDHTEKTKNAQKKGYGQNLRVERKALSVTVNAKEEFPLEPSQEAVDEAMFRCKHDEPHRLLRELFDERPMWTRMGLLYRTRIDDSLLRSILQKYAFYILSGPWGRLWCKFGYDPRTDRNGGLYQTIMVSFRQHGSIPERQRLKVSSDRAQTINHTADVSEPVTYMYEPGKLPRIRQMWYCVMDVRLPQAMNELVAVVENNTPPTPEEVRDKGWLPNTLLEKIRDLIKEDVARTSAELEGLMNDTAPGEEEF,not soluble
12,MAHHHHHHMSLAGQFTTFCRTHEQPMNEESCAVFLMAIEVAPSTRQQYARMLRSMLEMNRTPLDMVILGLQKIASRSETKQTRPSTKERGGRMYPQPDRLEGTCCLTTCVDNGELLVRGFGLDFQQFHTGVGRGLSFGLARGAEDGEGGSIPRLAVREDTRAGRLRQYKAMQDTSRKRKAYEAYDCTGDTISGSLGCHGAFHKTGSVEARCSNRGDMRFGPARGLAVGEARRPVRPSPEYCSIFGEIHHNADPGVVIDRIDVKGETAEGQELWLRAEERFFHDFNHNHAATITRRATRTRPTTPQNEHAIPLQQVNVPVLNLEWIQIRLNPATLERLMQVWGLVGRSPFPLSSSGKAREGSRSIPTADARLLNAAGIIEDASSTITGGWIIPFFGCGGENHRFTTTMDRVATRQEQRRAL,not soluble
13,QRKVSVAGAITTMDPAQLEVPATNIVNTLAGRVAGVIGVQSSGEPGKNISEFWVRGIGTFGANSGALVLIDGLEGSLSQIDAADVESFSVLKDAAATAVYGSRGANGVVLVTTKRGLES,not soluble
14,MPDLSAAEFTLLQGAHLFAPEDRGICDVLLANGKIIAVGAGIPGDIVPDCTVINLSGRMLCPGFIDQHVHLIGGGGEAGPTTRTPEVSLSRLTEAGITTVVGLLGTDSVSRHPASLLAKTRALNEEGITAWMLTGAYHVPSPTITGSVEKDVALIDRVIGVKCAVSDHRSAAPSGNQLASMAAESRVGGLLGGKPGVSVFHMGSSKKGLQPLYDILENSDVPIGKLLPTHVNRSESLFEQALAFALKGGVIDITTSIPDPVAPAEGIARAVKAGVPLSRVTLSSDGNGSQPLFDAAGNLTGIGVAGFESLLETLQTLVNHYGFSLANALRPLTTSVAAFLSLDGKGEIRPGNDADLLVFSADLRIEQVYARGKRMVNEGKACVKGTFEPA,not soluble
15,MGSDKIHHHHHHMLISVVLPAYNVQDTIGESIDSILSQTFTDFELIIINDGSQDNTEEVIHAYSDKRIRYYRNEKNEGLIYTLNRGLDLAQGKYIARMDADDVSLPTRFEKQVKVMEESPNIVVCGTQIILFGVDTAKRFTLFLPEESEDLKNLLFIQTCFAHPTVMVRRQVLIDNEVRYDADYPHAEDYKMWIDLSLLGEFYNIQEPLLRYRLSDGQVSHKFSDVQKRTASACRRFLISARFKDEKLDRQIENSIDISTICYIKKKEYPRELLEVLYSSLRKYNFKCLCYLFVSGDIFRFEIVVALALLKRFIIKKDRLL,not soluble
16,MGSDKIHHHHHHMKFNEFLNNLSNYEPGKDIEVIAKEYGVKEVIKLASNENPFGTPPKAIECLRQNANKAHLYPDDSMIELKSTLAQKYKVQNENIIIGAGSDQVIEFAIHSKLNSKNAFLQAGVTFAMYEIYAKQCGAKCYKTQSITHNLDEFKKLYETHKDEIKLIFLCLPNNPLGECLDASEATEFIKGVNEDCLVVIDAAYNEFASFKDSKKHLEPCELIKEFDNVLYLGTFSKLYGLGGLRIGYGIANANIISAFYKLRAPFNVSNLALKAAVAAMDDDEFTEKTLENNFSQMELYKEFAKKHNIKIIDSYTNFITYFFDEKNSTDLSEKLLKKGIIIRNLKSYGLNAIRITIGTSYENEKFFTEFDKILR,not soluble
17,MGPAKKKKKGKEKKFRRELGSWSAVELEKFIEYKAEDAGKKVIYINPKYSPQKCSRCGYVSKENRHDSVFKCKNCGFELNADLNASRNIEVIRVSEYFRLLSASQSLLFNETPLTGGAGDQRQAPKLLEHHHHHH,soluble
18,MAISSRNTLLAALAFIAFQAQAVNVTVAYQTSAEPAKVAQADNTFAKESGATVDWRKFDSGASIVRALASGDVQIGNLGSSPLAVAASQQVPIEVFLLASKLGNSEALVVKKTISKPEDLIGKRIAVPFISTTHYSLLAALKHWGIKPGQVEIVNLQPPAIIAAWQRGDIDGAYVWAPAVNALEKDGKVLTDSEQVGQWGAPTLDVWVVRKDFAEKHPEVVKAFSKSAIDAQQPYIANPDVWLKQPENISKLARLSGVPEGDVPGLVKGNTYLTPQQQTAELTGPVNKAIIDTAQFLKEQGKVPAVANDYSQYVTSRFVQ,not soluble
19,MNRMRRSTAFSEHVTFHTVMAKRGTGSKLDREVEIQFTNLQLIGTGSFGAVYKAVLRENDEPIAIKKIKVDDRFKSRELTIMHEMDHPNIIRLLYYYVMQQENCLNFVMEFMPKDLAYVHRQFAHNDKQMPAYSIKLYMFQLLRGIGFLHLHNIVHRDIKPKNLLVDESNGILKICDFGSAKRLEKNEPNITYICSRYYRAPELIFGSKNYDTSIDTWSVGTVVGELLHNSPIFLADSAVDILALQIKAFGTPSKEDMAKWNYEYVHIPYDTITGVGIQKFIGRKLSLSTLELLNSLMKMDPKLRIKPYEALTLPYFDDLRDPHYKLPSGAPIPPLFDWLEREYIANHEIIKDIFPRSEEGDKVECL,not soluble
20,EYYDVRGWDPHDRQVYTPIHEACYDRGGIFFAFFDDEQMIAAAALDTLPRGMNGELRQLLFFYVGAGKRGQGWGRRLFQYALHQLPEMGASGLYISSIPNKNTVDFYLAQG,not soluble
21,MTTKPPIERIMYIELRTSLEMFRSDLVDLEALANAAKEALEQLPYIPKNPCGKGEDDDPLSGPESALRTGRLCGLVCCTATAAEGALSTCSKLIDWAYANEPEGVDDAVLADDIDGDDDDDDEGSGSNGANGGGGANGSGNGSNGSGNGGPPDGGVESAAPAGSTELAEARPSRGGIALDLPPAHAPHGAPVA,not soluble
22,GHMSRRSFKNRVLAFFKGYPSFYYPATLVAPVHSAVTSSIMYKVQFDDATMSTVNSNQIKRFFLKKGDVVQSTRLGKIKHTVVKTFRSTNEQLSLIAVDALNNDMVILAHGEIEVTVPISTIYVAPVNIRRFQGRDLSFSTLKDMKFEETSFL,soluble
